Source: patent US20180194839A1 (Novartis, published 2018)
Positions count from the first letter of the chain named. Names and notes keep the numbering of the source.

Columns and labels:
Test in all cases: ELISA, coated cytokine;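 also: antibodies incubated 3 h at room temperature on cytokine-coated plates, binding read out with alkaline phosphatase-conjugated anti-species IgG secondary antibodies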
[1] = molecular target: T1, recombinant mouse TNFα (R&D Systems Cat#410-MT) (mouse, UniProt P06804 80-235)
T1 construct: coated at 0.5 µg/ml; also called mTNFα
T1 sequence (looked up): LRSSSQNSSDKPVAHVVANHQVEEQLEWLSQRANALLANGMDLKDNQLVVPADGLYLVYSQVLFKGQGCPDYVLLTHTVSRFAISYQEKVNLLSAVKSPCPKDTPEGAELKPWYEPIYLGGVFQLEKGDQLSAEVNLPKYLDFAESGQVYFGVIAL

[2] = molecular target: T2, recombinant human IL-13 (Novartis) (human, UniProt P35225 35-146, limits assumed)
T2 construct: also called huIL-13
T2 sequence (P35225 35-146 limits assumed): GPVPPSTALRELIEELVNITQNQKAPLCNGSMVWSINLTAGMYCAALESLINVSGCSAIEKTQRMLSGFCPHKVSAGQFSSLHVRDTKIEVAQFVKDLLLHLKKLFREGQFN

[3] = molecular target: T3, recombinant human IL-8 (R&D Systems Cat#208-IL-010/CF) (human, UniProt P10145 28-99)
T3 construct: also called huIL-8
T3 sequence (looked up): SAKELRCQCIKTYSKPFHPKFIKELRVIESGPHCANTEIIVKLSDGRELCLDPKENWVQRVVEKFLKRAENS

[4] = molecular target: T4, recombinant rat IL-4 (R&D Systems Cat#504-RL/CF) (rat, UniProt P20096 25-147, limits assumed)
T4 sequence (looked up): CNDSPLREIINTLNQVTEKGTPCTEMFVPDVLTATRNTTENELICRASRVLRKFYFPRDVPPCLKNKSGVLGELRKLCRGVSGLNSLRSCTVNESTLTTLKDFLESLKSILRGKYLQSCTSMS

[5] = molecular target: T5, recombinant mouse IL-6 (R&D Systems Cat#406-ML-010/CF) (mouse, UniProt P08505 25-211)
T5 construct: coated at 0.5 µg/ml; also called mIL-6
T5 sequence (looked up): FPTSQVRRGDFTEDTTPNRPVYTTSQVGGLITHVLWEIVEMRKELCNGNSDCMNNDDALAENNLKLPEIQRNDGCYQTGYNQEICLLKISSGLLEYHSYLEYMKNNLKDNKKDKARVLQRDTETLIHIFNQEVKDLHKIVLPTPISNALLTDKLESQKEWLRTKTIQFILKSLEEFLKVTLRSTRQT

[6] = molecular target: T6, recombinant rat IL-6 (R&D Systems Cat#506-RL-010) (rat, UniProt P20607 25-211)
T6 sequence (looked up): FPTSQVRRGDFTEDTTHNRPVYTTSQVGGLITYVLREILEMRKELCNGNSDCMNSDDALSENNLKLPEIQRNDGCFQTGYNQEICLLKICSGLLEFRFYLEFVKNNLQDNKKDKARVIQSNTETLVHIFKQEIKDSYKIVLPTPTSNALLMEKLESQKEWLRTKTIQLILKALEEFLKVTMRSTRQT

[7] = molecular target: T7, recombinant mouse IFN-γ (R&D Systems Cat#485-MT) (mouse, UniProt P01580 23-155)
T7 construct: also called mIFN-γ
T7 sequence (looked up): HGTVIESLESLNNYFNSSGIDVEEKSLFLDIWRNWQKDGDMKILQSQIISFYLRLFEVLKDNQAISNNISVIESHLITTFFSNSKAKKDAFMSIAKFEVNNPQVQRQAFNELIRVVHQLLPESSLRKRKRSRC

[8] = molecular target: T8, recombinant mouse IL-18 (MBL Cat#B004-5) (mouse, UniProt P70380 36-192)
T8 construct: also called mIL-18
T8 sequence (looked up): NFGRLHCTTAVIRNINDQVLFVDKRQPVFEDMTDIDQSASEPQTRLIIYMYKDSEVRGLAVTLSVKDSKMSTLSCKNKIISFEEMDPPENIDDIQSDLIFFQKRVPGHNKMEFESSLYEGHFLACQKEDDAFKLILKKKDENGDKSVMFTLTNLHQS

[9] = molecular target: T9, recombinant rat TNFα (R&D Systems Cat#510-RT/CF) (rat, UniProt P16599 80-235)
T9 sequence (looked up): T1 sequence (looked up) with V22A, V58I, N91S, V96I, I117M, Q130L, F143I, A144T

[10] = molecular target: T10, recombinant human TGFβ2 (Novartis) (human, UniProt P61812 303-414)
T10 construct: also called huTGFβ2
T10 sequence (looked up): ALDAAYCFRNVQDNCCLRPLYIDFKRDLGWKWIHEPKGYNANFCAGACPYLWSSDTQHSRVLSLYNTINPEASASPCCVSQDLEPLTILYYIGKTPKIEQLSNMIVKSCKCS

[11] = molecular target: T11, recombinant mouse IL-23 (R&D Systems Cat#1887-ML) (mouse, UniProt Q9EQ14 22-196; P43432 23-335)
T11 construct: also called mIL-23
T11 sequence (looked up) 1: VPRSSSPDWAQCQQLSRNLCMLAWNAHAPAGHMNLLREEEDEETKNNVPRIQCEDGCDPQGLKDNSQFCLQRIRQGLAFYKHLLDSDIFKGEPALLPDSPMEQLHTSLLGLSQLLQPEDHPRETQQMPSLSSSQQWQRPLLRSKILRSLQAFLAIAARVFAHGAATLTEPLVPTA
T11 sequence (looked up) 2: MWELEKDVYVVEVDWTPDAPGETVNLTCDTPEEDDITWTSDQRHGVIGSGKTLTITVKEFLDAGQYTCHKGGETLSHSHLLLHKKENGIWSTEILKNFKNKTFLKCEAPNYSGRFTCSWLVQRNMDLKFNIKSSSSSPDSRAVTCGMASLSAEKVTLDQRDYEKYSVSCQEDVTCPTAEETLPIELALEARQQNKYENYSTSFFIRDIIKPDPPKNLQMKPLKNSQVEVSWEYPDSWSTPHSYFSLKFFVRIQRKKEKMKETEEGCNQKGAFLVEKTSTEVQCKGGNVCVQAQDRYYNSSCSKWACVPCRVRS

[12] = molecular target: T12, recombinant human IL-20 (Novartis) (human, UniProt Q9NYY1 25-176, limits assumed)
T12 construct: also called huIL-20
T12 sequence (looked up): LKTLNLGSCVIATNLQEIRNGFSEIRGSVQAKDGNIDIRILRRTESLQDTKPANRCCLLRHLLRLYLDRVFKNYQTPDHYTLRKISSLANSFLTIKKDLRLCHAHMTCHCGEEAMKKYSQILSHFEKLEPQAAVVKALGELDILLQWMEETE

Measured: binding result

B1: XAB4 (antibody, human IgG1, kappa, V domains shown)
VH: EVQLVESGGDLVQPGGSLRLSCAASGFTFSSYWMSWVRQAPGKGLEWVANIKQDGSEKYYVDSVKGRFTISRDNAKNSLYLQMNSLRAEDTAVYYCARDRGSLYYWGQGTLVTVSS
VL: AIQLTQSPSSLSASVGDRVTITCRPSQGINWELAWYQQKPGKAPKLLIYDASSLEQGVPSRFSGSGSGTDFTLTISSLQPEDFATYYCQQFNSYPLTFGGGTKVEIKR
notes: also called MB435 N56Q
no binding (tested: 10 µg/ml): all assays above

B2: XAB1 (antibody, human IgG1, kappa, V domains shown)
VH: B1 VH
VL: B1 VL with N30I, W31S, E32A, Q56N
notes: human IgG1/kappa monoclonal antibody; also called parental XAB1; XAB1 IgG
no binding (tested: 10 µg/ml): all assays above
